Test results as given in patent publication US20090048161A1 (VALORISATION HSJ SOCIETE EN COMMANDITE, published 2009).
One block for each binder: values may come before it. Where no end group is shown, it is not given here. [ ]: non-standard residue; d: D form. dOrn = NCCC[C@@H](N)C(=O)O

Assays:
Assay in all cases: cell-based or functional assay
[1] = molecular target: T1, IL-1R of pig (piglet pial vessels; porcine endothelial cells) (porcine (piglet), UniProt A0A5G2QSI4 18-572)
T1 sequence: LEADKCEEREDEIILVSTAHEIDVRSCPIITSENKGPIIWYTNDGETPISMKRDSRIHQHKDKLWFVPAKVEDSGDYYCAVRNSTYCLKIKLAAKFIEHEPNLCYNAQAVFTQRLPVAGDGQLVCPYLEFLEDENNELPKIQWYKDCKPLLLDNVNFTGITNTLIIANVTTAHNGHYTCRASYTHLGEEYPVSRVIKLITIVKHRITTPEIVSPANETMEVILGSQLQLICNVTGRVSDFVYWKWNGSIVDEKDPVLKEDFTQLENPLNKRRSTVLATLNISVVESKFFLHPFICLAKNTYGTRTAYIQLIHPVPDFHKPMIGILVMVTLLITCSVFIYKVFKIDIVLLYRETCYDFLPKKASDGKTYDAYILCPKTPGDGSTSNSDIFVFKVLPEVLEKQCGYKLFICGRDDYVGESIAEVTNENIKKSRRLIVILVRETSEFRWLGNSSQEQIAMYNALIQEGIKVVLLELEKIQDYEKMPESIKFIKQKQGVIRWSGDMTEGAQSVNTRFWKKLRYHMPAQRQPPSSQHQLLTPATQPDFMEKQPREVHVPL

[2] = molecular target: T2, human Interleukin-1 receptor (IL-1R-alpha) (human, UniProt P14778 18-569)
T2 sequence: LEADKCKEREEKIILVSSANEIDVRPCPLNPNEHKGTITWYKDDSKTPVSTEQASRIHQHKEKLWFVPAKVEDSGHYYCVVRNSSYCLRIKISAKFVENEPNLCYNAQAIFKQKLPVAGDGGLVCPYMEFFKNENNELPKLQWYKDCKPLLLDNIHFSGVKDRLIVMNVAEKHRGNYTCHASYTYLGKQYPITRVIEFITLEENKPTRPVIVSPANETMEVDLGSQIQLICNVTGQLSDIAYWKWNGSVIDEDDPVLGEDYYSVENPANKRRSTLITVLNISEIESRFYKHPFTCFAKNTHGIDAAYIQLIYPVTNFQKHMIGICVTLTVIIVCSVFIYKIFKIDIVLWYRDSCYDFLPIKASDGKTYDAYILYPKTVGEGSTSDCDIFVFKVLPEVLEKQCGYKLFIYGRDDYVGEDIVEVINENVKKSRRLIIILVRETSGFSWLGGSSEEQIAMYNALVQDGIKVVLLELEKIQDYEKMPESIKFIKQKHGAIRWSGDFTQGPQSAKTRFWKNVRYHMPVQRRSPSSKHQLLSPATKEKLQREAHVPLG

[3] = molecular target: T2, human Interleukin-1 receptor …; remark: listed apart in the source
[4] = molecular target: IL-1R (cells or tissue whose species or assay the filing does not state at that place)
[5] = molecular target: IGF-1 receptor of rat aorta (rat, UniProt P24062 31-1370)
Chain of IGF-1 receptor of rat aorta (P24062 31-1370): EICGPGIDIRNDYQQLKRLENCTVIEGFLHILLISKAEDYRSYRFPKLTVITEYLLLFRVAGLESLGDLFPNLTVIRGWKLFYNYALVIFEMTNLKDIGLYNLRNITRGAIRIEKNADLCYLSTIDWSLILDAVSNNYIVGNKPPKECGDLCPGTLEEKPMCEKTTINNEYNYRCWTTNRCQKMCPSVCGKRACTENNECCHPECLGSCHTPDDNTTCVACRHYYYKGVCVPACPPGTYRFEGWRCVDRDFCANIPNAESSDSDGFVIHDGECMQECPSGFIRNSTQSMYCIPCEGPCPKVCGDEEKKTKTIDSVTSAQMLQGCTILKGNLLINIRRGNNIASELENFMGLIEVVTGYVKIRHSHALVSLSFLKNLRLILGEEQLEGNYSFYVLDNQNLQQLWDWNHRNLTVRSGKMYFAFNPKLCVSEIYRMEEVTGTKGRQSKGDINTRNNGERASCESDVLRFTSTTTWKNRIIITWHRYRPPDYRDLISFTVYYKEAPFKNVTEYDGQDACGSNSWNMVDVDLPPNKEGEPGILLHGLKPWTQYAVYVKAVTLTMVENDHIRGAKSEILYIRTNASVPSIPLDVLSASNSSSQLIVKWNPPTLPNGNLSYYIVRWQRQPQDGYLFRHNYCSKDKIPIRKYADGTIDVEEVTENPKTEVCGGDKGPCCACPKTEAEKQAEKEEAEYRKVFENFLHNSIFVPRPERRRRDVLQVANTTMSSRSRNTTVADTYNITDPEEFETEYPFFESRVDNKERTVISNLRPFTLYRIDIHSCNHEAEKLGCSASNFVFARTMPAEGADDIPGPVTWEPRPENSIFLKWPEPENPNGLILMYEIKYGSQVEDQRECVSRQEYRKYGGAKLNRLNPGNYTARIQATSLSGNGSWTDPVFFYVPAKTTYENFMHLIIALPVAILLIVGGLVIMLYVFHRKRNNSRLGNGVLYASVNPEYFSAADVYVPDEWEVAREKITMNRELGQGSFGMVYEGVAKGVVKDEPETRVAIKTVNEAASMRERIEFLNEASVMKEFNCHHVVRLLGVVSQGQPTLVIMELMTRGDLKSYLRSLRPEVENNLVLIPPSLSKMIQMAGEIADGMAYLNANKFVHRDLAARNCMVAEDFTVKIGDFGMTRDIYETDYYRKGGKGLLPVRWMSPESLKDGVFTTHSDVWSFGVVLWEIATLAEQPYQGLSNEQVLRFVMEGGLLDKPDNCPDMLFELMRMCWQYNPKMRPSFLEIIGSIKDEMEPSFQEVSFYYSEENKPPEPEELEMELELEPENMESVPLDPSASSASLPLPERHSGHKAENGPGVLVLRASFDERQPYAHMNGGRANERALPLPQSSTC

[6] = molecular target: T3, human Insulin-like growth factor 1 receptor (IGF-1R) (human, UniProt P08069 31-1367)
T3 sequence (P08069 31-1367 limits assumed): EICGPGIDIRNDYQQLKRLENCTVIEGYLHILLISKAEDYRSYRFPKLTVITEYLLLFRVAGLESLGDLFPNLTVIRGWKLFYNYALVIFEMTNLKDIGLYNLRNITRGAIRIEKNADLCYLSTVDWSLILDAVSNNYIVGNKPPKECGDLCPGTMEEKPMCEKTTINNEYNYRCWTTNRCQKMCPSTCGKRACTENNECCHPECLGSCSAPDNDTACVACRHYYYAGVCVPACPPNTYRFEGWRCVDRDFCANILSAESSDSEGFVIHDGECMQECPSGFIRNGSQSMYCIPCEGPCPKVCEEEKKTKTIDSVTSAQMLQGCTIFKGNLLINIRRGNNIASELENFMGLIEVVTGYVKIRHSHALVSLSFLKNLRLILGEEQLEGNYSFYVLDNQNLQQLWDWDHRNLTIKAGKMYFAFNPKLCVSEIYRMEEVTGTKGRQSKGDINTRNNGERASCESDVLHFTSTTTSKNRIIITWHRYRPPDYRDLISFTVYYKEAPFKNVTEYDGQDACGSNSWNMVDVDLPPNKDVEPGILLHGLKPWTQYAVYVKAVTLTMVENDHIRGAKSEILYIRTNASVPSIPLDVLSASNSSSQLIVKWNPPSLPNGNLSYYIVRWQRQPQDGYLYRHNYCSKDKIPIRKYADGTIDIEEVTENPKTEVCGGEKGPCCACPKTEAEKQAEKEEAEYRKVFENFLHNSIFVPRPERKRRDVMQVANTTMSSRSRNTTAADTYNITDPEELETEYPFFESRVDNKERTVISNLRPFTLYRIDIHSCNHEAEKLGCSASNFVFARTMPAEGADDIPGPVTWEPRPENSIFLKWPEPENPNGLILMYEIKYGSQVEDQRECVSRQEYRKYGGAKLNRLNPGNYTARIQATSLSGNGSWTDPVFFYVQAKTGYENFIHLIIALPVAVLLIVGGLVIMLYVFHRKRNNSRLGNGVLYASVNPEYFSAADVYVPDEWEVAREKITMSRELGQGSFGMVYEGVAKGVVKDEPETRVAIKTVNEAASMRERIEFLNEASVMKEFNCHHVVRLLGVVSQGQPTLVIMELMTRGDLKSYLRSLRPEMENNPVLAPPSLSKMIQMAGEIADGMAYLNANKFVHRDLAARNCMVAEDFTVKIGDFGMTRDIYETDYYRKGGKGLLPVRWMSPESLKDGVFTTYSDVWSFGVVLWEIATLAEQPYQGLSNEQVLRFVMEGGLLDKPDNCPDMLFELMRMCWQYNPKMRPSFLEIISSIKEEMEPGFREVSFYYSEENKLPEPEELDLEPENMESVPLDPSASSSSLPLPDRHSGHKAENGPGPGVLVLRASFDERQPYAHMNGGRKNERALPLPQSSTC

[7] = molecular target: T1, IL-1R of pig (piglet pial vessels; …); remark: listed apart in the source
[8] = molecular target: T3, human Insulin-like growth factor 1 …; remark: listed apart in the source
[9] = molecular target: T3, human Insulin-like growth factor 1 …; remark: listed apart in the source
VEGFR-2 (Flk-1) = VEGFR-2 (Flk-1) (human, UniProt P35968 20-1356)
Chain of VEGFR-2 (Flk-1) (P35968 20-1356 limits assumed): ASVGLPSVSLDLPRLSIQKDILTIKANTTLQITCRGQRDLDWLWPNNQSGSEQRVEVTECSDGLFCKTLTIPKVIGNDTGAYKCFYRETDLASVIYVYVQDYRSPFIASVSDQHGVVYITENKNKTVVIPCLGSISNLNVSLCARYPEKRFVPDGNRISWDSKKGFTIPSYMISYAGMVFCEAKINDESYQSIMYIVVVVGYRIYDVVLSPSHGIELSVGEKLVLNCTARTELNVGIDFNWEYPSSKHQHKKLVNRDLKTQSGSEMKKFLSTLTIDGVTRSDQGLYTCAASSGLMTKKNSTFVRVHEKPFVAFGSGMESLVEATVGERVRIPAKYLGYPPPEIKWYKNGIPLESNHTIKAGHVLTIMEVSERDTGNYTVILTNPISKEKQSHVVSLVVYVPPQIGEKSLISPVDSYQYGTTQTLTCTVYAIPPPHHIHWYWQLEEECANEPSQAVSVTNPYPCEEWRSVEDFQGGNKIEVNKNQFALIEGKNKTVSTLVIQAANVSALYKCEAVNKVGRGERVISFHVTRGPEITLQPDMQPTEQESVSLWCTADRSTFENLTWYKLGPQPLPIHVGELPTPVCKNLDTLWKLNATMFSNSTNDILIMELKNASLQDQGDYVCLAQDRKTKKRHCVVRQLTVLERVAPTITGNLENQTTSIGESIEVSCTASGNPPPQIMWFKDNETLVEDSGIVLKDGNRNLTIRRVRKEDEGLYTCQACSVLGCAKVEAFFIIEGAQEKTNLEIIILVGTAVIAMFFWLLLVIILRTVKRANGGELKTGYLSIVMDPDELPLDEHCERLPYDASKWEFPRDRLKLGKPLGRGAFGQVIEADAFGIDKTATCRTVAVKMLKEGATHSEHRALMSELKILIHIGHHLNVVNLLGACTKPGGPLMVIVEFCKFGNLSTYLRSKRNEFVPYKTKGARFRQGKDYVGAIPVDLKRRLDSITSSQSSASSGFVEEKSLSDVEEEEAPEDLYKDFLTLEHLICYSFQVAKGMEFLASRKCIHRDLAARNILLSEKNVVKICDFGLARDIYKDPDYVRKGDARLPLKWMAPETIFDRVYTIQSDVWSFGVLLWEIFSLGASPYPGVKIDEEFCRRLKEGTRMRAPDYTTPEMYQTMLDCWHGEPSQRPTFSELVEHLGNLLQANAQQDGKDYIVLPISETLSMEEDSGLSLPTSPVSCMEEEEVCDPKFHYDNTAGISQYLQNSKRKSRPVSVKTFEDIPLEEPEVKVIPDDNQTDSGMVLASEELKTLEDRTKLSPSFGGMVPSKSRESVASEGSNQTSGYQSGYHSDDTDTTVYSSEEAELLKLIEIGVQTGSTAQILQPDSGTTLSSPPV

[10] = molecular target: T3, human Insulin-like growth factor 1 …; remark: listed apart in the source
[11] = molecular target: T2, human Interleukin-1 receptor …; remark: listed apart in the source

Binder: [dR][dY][dT][dV][dE][dL][dA] (also: 125I-labelled form used as tracer, site not given here) [API-101.10]
IC50, IL-1-induced PGE2 synthesis, endothelial cells [1]: 1.2 nM
IC50, prevention of IL-1β (75 ng/ml)-induced vasodilation, piglet pial vessels [1]: 10.8 nM
IC50, IL-1-induced PGE2 synthesis, WI-38 cells [2]: 0.2 nM
percent of IL-1β-induced WI-38 (human lung fibroblasts) proliferation abolished, 3H-thymidine [2]: 100%

Binder: [dR][dY][dT][dP][dE][dL][dA] [API-101.107]
IC50, PGE2 measurement, human WI-38 cells [2]: 100 nM
IC50 (assay not given) [4]: 0.0012 nM

Binder: ENFLHLLLA [APG-205]
EC50, inhibition of ex vivo IGF-1-induced vasorelaxation of rat aorta [5]: 70 nM
Emax, inhibition of ex vivo IGF-1-induced vasorelaxation of rat aorta [5]: 25%
EC50, IGF-1 (50 ng/ml)-induced proliferation, MCF-7 [6]: 0.1 nM
EC50, IGF-1 (50 ng/ml)-induced proliferation, MDA-MB-231 [6]: 100 nM
Emax, IGF-1 (50 ng/ml)-induced proliferation, MCF-7 [6]: 60%
Emax, IGF-1 (50 ng/ml)-induced proliferation, MDA-MB-231 [6]: 100%

Binder: RTVLSNL [APG-206.8]
Emax, proliferation, MCF-7 (breast cancer) cells [8]: 100%
IC50, proliferation, MCF-7 (breast cancer) cells [8]: 0.6 nM

Binder: [dS][dL][dF][dV][dP][dR][dP][dE][dR][dK] [APG-201]
EC50, IGF-1 induced proliferation, 3H-thymidine, A549 carcinoma cells [9]: 1000 nM
EC50, IGF-1 (50 ng/ml)-induced proliferation, MCF-7 [6]: 35 nM
EC50, IGF-1 (50 ng/ml)-induced proliferation, MDA-MB-231 [6]: 0.1 nM
Emax, IGF-1 (50 ng/ml)-induced proliferation, MCF-7 [6]: 20%
Emax, IGF-1 (50 ng/ml)-induced proliferation, MDA-MB-231 [6]: 100%

Binder: KERTVLS [APG-206.5]
Emax, proliferation, MCF-7 (breast cancer) cells [8]: 100%
IC50, proliferation, MCF-7 (breast cancer) cells [8]: 9 nM
Emax, IGF-1-induced proliferation, NIH3T3-IGF-1R cells [10]: 75%
IC50, IGF-1-induced proliferation, NIH3T3-IGF-1R cells [10]: 0.5 nM

Binder: TVLSNL [APG-206.9]
Emax, IGF-1-induced proliferation, NIH3T3-IGF-1R cells [10]: 90%
IC50, IGF-1-induced proliferation, NIH3T3-IGF-1R cells [10]: 20 nM

Binder: [dR][dY][dT][dV][dQ][dL][dA] [API-101.103]
IC50, PGE2 measurement, human WI-38 cells [2]: 50 nM

Binder: [dY][dT][dV][dE][dL][dA] [API-101.11]
percent of IL-1β-induced WI-38 (human lung fibroblasts) proliferation abolished, 3H-thymidine [2]: 100%

Binder: KERTVISNLR [APG-206]
EC50, inhibition of ex vivo IGF-1-induced vasorelaxation of rat aorta [5]: 689 nM
Emax, inhibition of ex vivo IGF-1-induced vasorelaxation of rat aorta [5]: 75%
EC50, IGF-1 (50 ng/ml)-induced proliferation, HepG2 [6]: < 0.1 nM
EC50, IGF-1 (50 ng/ml)-induced proliferation, MCF-7 [6]: 2 nM
Emax, IGF-1 (50 ng/ml)-induced proliferation, MCF-7 [6]: 60%

Binder: ERTVLSNL [APG-206.7]
Emax, proliferation, MCF-7 (breast cancer) cells [8]: 90%
IC50, proliferation, MCF-7 (breast cancer) cells [8]: 0.01 nM
Emax, IGF-1-induced proliferation, NIH3T3-IGF-1R cells [10]: 100%
IC50, IGF-1-induced proliferation, NIH3T3-IGF-1R cells [10]: 20 nM

Binder: RTNASVPSI [APG-203]
EC50, inhibition of ex vivo IGF-1-induced vasorelaxation of rat aorta [5]: 96 nM
Emax, inhibition of ex vivo IGF-1-induced vasorelaxation of rat aorta [5]: 50%
EC50, IGF-1 (50 ng/ml)-induced proliferation, HepG2 [6]: < 0.1 nM
EC50, IGF-1 (50 ng/ml)-induced proliferation, MCF-7 [6]: 8 nM
EC50, IGF-1 (50 ng/ml)-induced proliferation, MDA-MB-231 [6]: 0.1 nM
Emax, IGF-1 (50 ng/ml)-induced proliferation, MCF-7 [6]: 45%
Emax, IGF-1 (50 ng/ml)-induced proliferation, MDA-MB-231 [6]: 100%

Binder: [dR][dY][dT][dP][dE][dL] [API-101.113]
Emax (%), IL-1β-induced TF-1 proliferation [3]: 70%
Emax (%), IL-1β-induced PGE2 synthesis in endothelial cells (porcine) [7]: 80%
IC50, IL-1β-induced PGE2 synthesis in endothelial cells (porcine) [7]: 0.0074 nM
Emax (%), IL-1β-induced proliferation in TF-1 cells (human) [11]: 100%

Binder: [dA][dP][dR][dY][dT][dV][dE][dL][dA] [API-101]
IC50, IL-1-induced PGE2 synthesis, endothelial cells [1]: 220 nM
IC50, prevention of IL-1β (75 ng/ml)-induced vasodilation, piglet pial vessels [1]: 182 nM
EC50, IL-1 induced proliferation, 3H-thymidine, A549 carcinoma cells [2]: 1000 nM
IC50, IL-1-induced PGE2 synthesis, WI-38 cells [2]: 790 nM
percent of IL-1β-induced WI-38 (human lung fibroblasts) proliferation abolished, 3H-thymidine [2]: 65%

Binder: [dE][dS][dD][dV][dL][dH][dF][dT][dS][dT] [APG-202]
EC50, IGF-1 induced proliferation, 3H-thymidine, A549 carcinoma cells [9]: 10 nM
EC50, IGF-1 (50 ng/ml)-induced proliferation, MCF-7 [6]: 300 nM
Emax, IGF-1 (50 ng/ml)-induced proliferation, MCF-7 [6]: 20%

Binder: [dK][dY][dT][dP][dE][dL][dA] [API-101.114]
Emax (%), IL-1β-induced PGE2 synthesis in endothelial cells (porcine) [7]: 50%
IC50, IL-1β-induced PGE2 synthesis in endothelial cells (porcine) [7]: 0.002 nM

Now from value to binder:

Emax (%), IL-1β-induced TF-1 proliferation [3]: 100%
IC50, IL-1β-induced TF-1 proliferation [3]: 3 nM
Binder: [dR][dW][dT][dP][dE][dL] [API-101.128]

EC50, IL-1 induced proliferation, 3H-thymidine, A549 carcinoma cells [2]: 1000 nM
Binder: MKLPVHKLY [API-103]

Emax (%), IL-1β-induced TF-1 proliferation [3]: < 30%
Binder: [dR][dF][dV][dP][dE][dL][dA] [API-101.127]

Emax (%), IL-1β-induced PGE2 synthesis in endothelial cells (porcine) [7]: 100%
IC50, IL-1β-induced PGE2 synthesis in endothelial cells (porcine) [7]: 0.01 nM
Binder: [dR][dY][dT][dP][dD][dL][dA] [API-101.117]

Emax (%), IL-1β-induced TF-1 proliferation [3]: < 10%
Binder: [dK][dY][dT][dP][dE][dL] [API-101.133]

EC50, VEGF (2 ng/ml)-induced proliferation, 3H-thymidine, PAEC transfected with Flk-1 (VEGFR-2 (Flk-1)): 9000 nM
Binder: [dE][dA][dT][dV]G[dE][dR][dV][dR][dL] (not fully specified (residue 5)) [VEGFR peptide 2.2]

Emax (%), IL-1β-induced PGE2 synthesis in endothelial cells (porcine) [7]: 45%
IC50, IL-1β-induced PGE2 synthesis in endothelial cells (porcine) [7]: 0.013 nM
Emax (%), IL-1β-induced proliferation in TF-1 cells (human) [11]: 75%
IC50, IL-1β-induced proliferation in TF-1 cells (human) [11]: 0.5 nM
Binder: [dR][dW][dT][dP][dE][dL][dA] [API-101.116]

Emax (%), IL-1β-induced TF-1 proliferation [3]: 63%
Binder: R[dY][dT][dP][dE][dL] [API-101.135]

EC50, VEGF (2 ng/ml)-induced proliferation, 3H-thymidine, PAEC transfected with Flk-1 (VEGFR-2 (Flk-1)): 9000 nM
Binder: [dA][dQ][dE][dK][dT][dN][dL][dE][dI][dI][dI][dL][dV]G (not fully specified (residue 14)) [VEGFR peptide 2.1]

Emax (%), IL-1β-induced TF-1 proliferation [3]: 50%
IC50, IL-1β-induced TF-1 proliferation [3]: 400 nM
Binder: [dR][dY][dT][dP][dE][dV] [API-101.129]

Emax (%), IL-1β-induced proliferation in TF-1 cells (human) [11]: 100%
IC50, IL-1β-induced proliferation in TF-1 cells (human) [11]: ~0.001 nM
Binder: [dOrn][dY][dT][dP][dE][dL][dA] [API-101.115]

Emax (%), IL-1β-induced TF-1 proliferation [3]: 0%
Binder: [dOrn][dY][dT][dP][dE][dL] [API-101.126]

EC50, IL-1 induced proliferation, 3H-thymidine, A549 carcinoma cells [2]: 10000 nM
Binder: VGSPKNAVPPV [API-106]
